The text below walks through data of patent US20190135918A1 (ICHNOS SCIENCES, published 2019).

Where a chain is given by its changes, count along the chain named. In names and notes the source's numbering stands.

Assay [1] deals with T1, human CD38 on cells (human, UniProt P28907 1-300). Nature of the assay: cell-based or functional assay.
Assay [2] addresses T2, human CD3 epsilon on cells (human, UniProt P07766 23-207).
T2 construct: whole, on cells; On cells it stands in the CD3/TCR complex; also called HPB-ALL cells (human CD3 epsilon positive T cell tumour line); CD3 on human T cells
Nature of the assay: FACS staining of HPB-ALL cells, scFv-Fc format, graded relative to chimeric OKT3.
Description: HPB-ALL cells (DSMZ, Braunschweig, Germany, Cat. No: ACC483) were used as CD3 positive cell line for FACS staining. […] After washing, cells were incubated with a 1/200 dilution of anti-Human Fc-PE (EBioscience, Vienna, Austria) for 45 min on ice. Cells were then washed again and resuspended in 200 ul FACS buffer.

Assay [3] addresses T3, soluble extracellular region of human CD38 fused to a 6-His-tag (human, UniProt P28907 43-300).
T3 construct: Expressed with the murine VJ2C leader; also called human CD38 protein; human CD38 antigen
Nature of the assay: SPR, antibody captured on protein G, CD38 injected. For orientation: In SPR one partner is held on a chip, and binding of the other changes the refractive index at the surface.

Assay [4] addresses T3, soluble extracellular region of human …. Nature of the assay: SPR.
Assay [5] concerns the target T4, soluble extracellular region of cynomolgus monkey CD38 antigen fused to a 6-His-tag (cynomolgus monkey, UniProt Q5VAN0 45-301).
T4 construct: also called cynomolgus CD38
Nature of the assay: SPR.

Assay [6] addresses T1, human CD38 on cells. Kind of assay: cell-based or functional assay. This is another data set of the same source.

B1: BEAT CD38-9G7Mouse/CD3 (bispecific antibody, human IgG1, kappa, L234A L235A)
heavy: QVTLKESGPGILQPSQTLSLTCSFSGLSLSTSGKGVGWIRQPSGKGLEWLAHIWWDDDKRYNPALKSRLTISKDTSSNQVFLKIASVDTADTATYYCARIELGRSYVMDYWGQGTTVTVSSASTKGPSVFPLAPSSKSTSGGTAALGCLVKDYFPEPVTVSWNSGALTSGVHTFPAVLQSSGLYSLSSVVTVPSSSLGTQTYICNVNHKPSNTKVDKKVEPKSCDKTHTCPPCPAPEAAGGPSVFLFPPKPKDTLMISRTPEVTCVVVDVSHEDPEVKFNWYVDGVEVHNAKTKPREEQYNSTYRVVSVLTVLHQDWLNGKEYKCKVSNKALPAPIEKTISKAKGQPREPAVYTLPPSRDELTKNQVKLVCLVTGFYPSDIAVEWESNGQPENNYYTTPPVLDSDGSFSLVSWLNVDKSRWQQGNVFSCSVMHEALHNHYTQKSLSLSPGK
light: DIVMTQSHKFMSTSVGDRVSISCKASQDVITSVAWFQQKPGQSPKLLIYSASYRYTGVPDRFTGSGSGTDFTFTISSVQAEDLAVYYCQQHYTIPLTFGAGTKLELKRTVAAPSVFIFPPSDEQLKSGTASVVCLLNNFYPREAKVQWKVDNALQSGNSQESVTEQDSKDSTYSLSSTLTLSKADYEKHKVYACEVTHQGLSSPVTKSFNRGEC
chain: EVQLVESGGGLVQPGGSLRLSCAASGYTFTRYTMHWVRQAPGKGLEWIGYINPSRGYTYYADSVKGRFTLSTDKSKNTAYLQMSSLRAEDTAVYYCARYYDDHYCLDYWGQGTLVTVSSGGGGSGGGGSGGGGSDIQLTQSPSSLSASVGDRVTITCRASSSVSYVAWYQQKPGKAPKRWIYDTSKLYSGVPSRFSGSGSGTDYTLTISSLQPEDFATYYCQQWSSNPPTFGQGTKVEIKGGGGTDKTHTCPPCPAPEAAGGPSVFLFPPKPKDTLMISRTPEVTCVVVDVSHEDPEVQFKWYVDGVEVHNAKTKPREEQYNSTFRVVSVLTVLHQDWLNGKEYKCKVSNKALPAPIEKTISKTKGQPREPEVATFPPSREEMTKNQVTLVCLVTGFYPSDIAVEWESSGQPENNYNTDPPLLESDGSFALSSRLRVDKSRWQQGNIFSCSVMHEALHNRFTQKSLSLSPGK
As to B1, in assay [1], the “killing assay against Daudi cells, flow cytometry readout, EC50 (pM)” value came out at 3.2 pM.

B2: BEAT CD38-OKT10Mouse/CD3 (bispecific antibody, human IgG1, kappa, L234A L235A)
heavy: QVELVESGGSLKLSCAASGFDFSRSWMNWVRQAPGKGLEWIGEINPDSSTINYTTSLKDKFIISRDNAKNTLYLQMTKVRSEDTALYYCARYGNWFPYWGQGTLVTVSSASTKGPSVFPLAPSSKSTSGGTAALGCLVKDYFPEPVTVSWNSGALTSGVHTFPAVLQSSGLYSLSSVVTVPSSSLGTQTYICNVNHKPSNTKVDKKVEPKSCDKTHTCPPCPAPEAAGGPSVFLFPPKPKDTLMISRTPEVTCVVVDVSHEDPEVKFNWYVDGVEVHNAKTKPREEQYNSTYRVVSVLTVLHQDWLNGKEYKCKVSNKALPAPIEKTISKAKGQPREPAVYTLPPSRDELTKNQVKLVCLVTGFYPSDIAVEWESNGQPENNYYTTPPVLDSDGSFSLVSWLNVDKSRWQQGNVFSCSVMHEALHNHYTQKSLSLSPGK
light: DILMTQSQKIMPTSVGDRVSVTCKASQNVDTNVAWYQQKPGQSPKALIYSASYRYSGVPDRFTGSGSGTDFTLTITNVQSEDLAEYFCQQYDSYPLTFGAGTKLDLKRTVAAPSVFIFPPSDEQLKSGTASVVCLLNNFYPREAKVQWKVDNALQSGNSQESVTEQDSKDSTYSLSSTLTLSKADYEKHKVYACEVTHQGLSSPVTKSFNRGE
chain: B1 chain
Regarding B2, the “killing assay against Daudi cells, flow cytometry readout, EC50 (pM)” value in assay [1] worked out at 126 pM.

B3: VH8-VL4 (scFv)
scFv-Fc chain: EVQLVESGGGLVQPGGSLRLSCAASGYTFTRYTMHWVRQAPGKGLEWIGYINPSRGYTYYADSVKGRFTLSTDKSKNTAYLQMNSLRAEDTAVYYCARYYDDHYCLDYWGQGTLVTVSSGGGGSGGGGSGGGGSGGGASDIQLTQSPSSLSASVGDRVTITCRASSSVSYVAWYQQKPGKAPKRWIYDTSKLYSGVPSRFSGSRSGTDYTLTISSLQPEDFATYYCQQWSSNPPTFGQGTKVEIK
notes: also called humanized OKT3 VH8-VL4 scFv-Fc fusion; hOKT3 VH8-VL4 scFv Fc
Take B3: the binding result in assay [2] is listed as “binds”.

B4: VH8-VL8 (scFv)
scFv-Fc chain: B3 scFv-Fc chain with R204G
notes: also called humanized OKT3 VH8-VL8 scFv-Fc fusion; hOKT3 VH8-VL8 scFv Fc
Consider B4, for which, in assay [2], the binding result is listed as “binds”.

B5: humanized 9G7 best-fit antibody (antibody, human IgG1, kappa, V domains shown)
VH: QVTLKESGPTLVKPTQTLTLTCTFSGLSLSTSGKGVGWIRQPPGKALEWLAHIWWDDDKRYNPALKSRLTITKDTSKNQVVLTMTNMDPVDTATYYCARIELGRSYVMDYWGQGTLVTVSS
VL: DIQMTQSPSSLSASVGDRVTITCQASQDVITSVAWYQQKPGKAPKLLIYSASYRYTGVPSRFSGSGSGTDFTFTISSLQPEDIATYYCQQHYTIPLTFGQGTKLEIKR
notes: Human IgG1; light chain carries the F36Y back mutation (Kabat); also called 9G7 best-fit F36Y humanized variant
On to B5, for which the Kd is 0.5 nM in assay [3] and 3.2 nM in assay [5]. Further, the “fold improvement of affinity over the first prototype” value in assay [4] was found to be 2 fold.

B6: first humanized 9G7 antibody prototype (best-fit approach, post CDR grafting) (antibody, human IgG1, kappa, V domains shown)
VH: B5 VH
VL: B5 VL with Y36F
notes: Human IgG1 isotype; also called first antibody prototype; first humanized prototype
For B6, in assay [4], binding was put at a Kd of 1 nM and the “fold lower binding than the mouse parental antibody” value is 3 fold.

B7: humanized 9G7 best-framework antibody (antibody, human IgG1, kappa, V domains shown)
VH: EVQLVESGGGLVQPGGSLRLSCAFSGLSLSTSGKGVGWIRQAPGKGLEWLAHIWWDDDKRYNPALKSRLTISKDTSKNTVYLQMNSLRAEDTAVYYCARIELGRSYVMDYWGQGTLVTVSS
VL: B5 VL with Q24R, Y36F, F73L, I83F, L104V
notes: Human IgG1
Consider B7, for which the Kd came to 0.4 nM in assay [3] and 1 nM in assay [5].

B8: BEAT CD38-HB7bestfit/CD3 antibody (bispecific antibody, human IgG1, kappa, L234A L235A)
heavy: QVQLQESGPGLVKPSETLSLTCTVSGFSLISYGVHWVRQPPGKGLEWLGVIWRGGSTDYNAAFMSRLTISKDNSKNQVSLKLSSVTAADTAVYFCAKTLITTGYAMDYWGQGTLVTVSSASTKGPSVFPLAPSSKSTSGGTAALGCLVKDYFPEPVTVSWNSGALTSGVHTFPAVLQSSGLYSLSSVVTVPSSSLGTQTYICNVNHKPSNTKVDKKVEPKSCDKTHTCPPCPAPEAAGGPSVFLFPPKPKDTLMISRTPEVTCVVVDVSHEDPEVKFNWYVDGVEVHNAKTKPREEQYNSTYRVVSVLTVLHQDWLNGKEYKCKVSNKALPAPIEKTISKAKGQPREPAVYTLPPSRDELTKNQVKLVCLVTGFYPSDIAVEWESNGQPENNYYTTPPVLDSDGSFSLVSWLNVDKSRWQQGNVFSCSVMHEALHNHYTQKSLSLSPGK
light: DIQLTQSPSSLSASVGDRVTITCRASEDIYNRLAWYQQKPGKAPKLLISGATSLETGVPSRFSGSGSGKDYTLTISSLQPEDFATYYCQQYWSTPTFGQGTKLEIKRTVAAPSVFIFPPSDEQLKSGTASVVCLLNNFYPREAKVQWKVDNALQSGNSQESVTEQDSKDSTYSLSSTLTLSKADYEKHKVYACEVTHQGLSSPVTKSFNRGEC
chain: EVQLVESGGGLVQPGGSLRLSCAASGYTFTRYTMHWVRQAPGKGLEWIGYINPSRGYTYYADSVKGRFTLSTDKSKNTAYLQMSSLRAEDTAVYYCARYYDDHYCLDYWGQGTLVTVSSGGGGSGGGGSGGGGSGGGASDIQLTQSPSSLSASVGDRVTITCRASSSVSYVAWYQQKPGKAPKRWIYDTSKLYSGVPSRFSGSGSGTDYTLTISSLQPEDFATYYCQQWSSNPPTFGQGTKVEIKGGGGTDKTHTCPPCPAPEAAGGPSVFLFPPKPKDTLMISRTPEVTCVVVDVSHEDPEVQFKWYVDGVEVHNAKTKPREEQYNSTFRVVSVLTVLHQDWLNGKEYKCKVSNKALPAPIEKTISKTKGQPREPEVATFPPSREEMTKNQVTLVCLVTGFYPSDIAVEWESSGQPENNYNTDPPLLESDGSFALSSRLRVDKSRWQQGNIFSCSVMHEALHNRFTQKSLSLSPGK
notes: Anti-CD38 FAB arm and anti-CD3 epsilon scFv BEAT heavy chain (third chain)
Take B8: the Kd in assay [3] amounted to 3.2 nM. Besides, the “T cell redirected killing of RPMI 8226 myeloma cells, RDL-FACS method, EC50” value in assay [6] stood at 0.0022 nM.

B9: BEAT CD38-HB7bestfit/CD3(SP34) antibody (bispecific antibody)
heavy: QVQLQESGPGLVKPSETLSLTCTVSGFSLISYGVHWVRQPPGKGLEWLGVIWRGGSTDYNAAFMSRLTISKDNSKNQVSLKLSSVTAADTAVYFCAKTLITTGYAMDYWGQGTLVTVSSASTKGPSVFPLAPSSKSTSGGTAALGCLVKDYFPEPVTVSWNSGALTSGVHTFPAVLQSSGLYSLSSVVTVPSSSLGTQTYICNVNHKPSNTKVDKKVEPKSCDKTHTCPPCPAPEAAGGPSVFLFPPKPKDTLMISRTPEVTCVVVDVSHEDPEVQFKWYVDGVEVHNAKTKPREEQYNSTFRVVSVLTVLHQDWLNGKEYKCKVSNKALPAPIEKTISKTKGQPREPAVYTLPPSREEMTKNQVKLVCLVTGFYPSDIAVEWESSGQPENNYYTTPPMLDSDGSFSLVSWLNVDKSRWQQGNIFSCSVMHEALHNRFTQKSLSLSPGK
light: B8 light
chain: not shown
Consider B9, for which the “T cell redirected killing of Daudi cells, RDL-FACS method, EC50” value in assay [6] is 0.0018 nM.

In general, Kd refers to the concentration at which binding is half-saturated.
